Measurements as given in PMC4450660, “Biochemical and Structural Characterization of Enolase from Chloroflexus aurantiacus: Evidence for a Thermophilic Origin” (Frontiers in Bioengineering and Biotechnology, 2015).

Substrate: O=C(O)[C@@H](CO)OP(=O)(O)O
Assay: purified protein
Format: biochemical, Chloroflexus aurantiacus
Conditions: 25 °C, pH 6.5, 50 mM Bis-Tris propane, 5 mM MgCl2, crystal structure with 2-PGA in active site, open conformation

B1: EnoCa (enolase-1 from Chloroflexus aurantiacus) (Chloroflexus aurantiacus J-10-fl) (protein)
chain: MSTLIEAIVAREVLDSRGNPTIEVDVRLESGDVGRAIVPSGASTGAHEALELRDGDKSRYNGKGVLKAVQAVNEDIAEALIGFDAADQIALDQELIALDGTPNKSKLGANAILGVSLAAAKAAAAAFGLPLYRYLGGVYAHVLPVPMMNIMNGGQHATNSTDFQEFMIMPVGAESFREGLRWGAEIYHMLKKVIHDRGFSTTVGDEGGFAPSLPTNDAPLQLIMEAIEKAGYRPGEQIVIALDPATTEIFEDGKYHLKREGRSLSSAEMVDYWVDLVNRYPIISLEDGLAEDDWEGWALLRAKLGDRVQLVGDDFLVTNVQRLQRAIEAKAANSILIKLNQIGSLTETLSAIQLAQRSGWTAVVSHRSGESEDVTIADLVVATNAGQIKTGAPARTDRIAKYNQLLRIEEELGSAARYAGRSAFKV
notes: native protein purified from C. aurantiacus cells, untagged; homodimer, subunit ~46 kDa, total ~92-96 kDa
Question: For B1, which Km is on record?
Answer: Its Km is 160 ± 10 µM.
